{"source": "patent US20200277359A1", "molecular_target": "Recombinant CHIKV E2 ectodomain protein (corresponding to the CHIKV-LR2006 strain) (Chikungunya virus strain LR2006)", "test": "ELISA on coated E2 ectodomain", "data": [{"substance": "murine CHK-152 (antibody)", "values": [{"measurement": "OD450", "value": "< 0.1", "unit": "od"}]}]}
